Reference: US20060115428A1 (MorphoSys, published 2006)
Positions count from the first letter of the chain named. Like-named read-outs stand apart in the source and are kept apart here. Values belong to the molecule of their own block, whether it stands above or below them.

Experiments:
[1] = target: recombinant fibronectin domain ED-B (His)6 (human) (UniProt P02751); test: SPR (BIAcore), ED-B immobilised on chip
[2] = target: recombinant fibronectin domain ED-B (His)6 (human) (UniProt P02751); test: SPR (BIAcore), ED-B immobilised on chip; remark: listed apart in the source
[3] = target: recombinant fibronectin domain ED-B (His)6 (human) (UniProt P02751); test: SPR (BIAcore), ED-B immobilised on chip; remark: listed apart in the source
[4] = target: T1, recombinant fibronectin domain ED-B (His)6 (human, UniProt P02751 1266-1356); test: SPR (BIAcore), ED-B immobilised on chip (about 100 RU), Fab in flow
T1 construct: domain: ED-B; Produced by standard procedures; immobilised on ELISA plates or on the BIAcore chip; also called recombinant ED-B; human ED-B
Method: (§1) F1-Chips (Biacore, Sweden) were coated with about 200 RU of ED-B (30 μg/ml, 10 mmol of acetate buffer, pH 4.0) and reference flow cells with a corresponding amount of human serum albumin (20 μg/ml, 10 mmol of acetate buffer, pH 4.5) with use of standard EDC-NHS-amine-coupling chemistry. The antigen density was reduced to about 100 RU for the Fab characterization of the second maturation. The regeneration was carried out with 10 mmol of HCl. All kinetic measurements were carried out in PBS buffer (136 mmol of NaCl, 2.7 mmol of KCl, 10 mmol of Na₂HPO₄, 1.76 mmol of KH₂PO₄, pH 7.4) with a flow rate of 20 μl/minute with use of a Fab concentration range of 1.5-500 nmol. The injection period was 1 minute in each case. All sensograms were evaluated with use of BIA evaluation software 3.1.

[5] = target: T2, recombinant fibronectin domain 7-8-9 (without ED-B) (UniProt P02751-1 1173-1446, limits assumed); test: specificity ELISA on immobilised recombinant domain 7-8-9
T2 construct: domain: fibronectin domains 7-8-9 (without ED-B)

[6] = target: T3, recombinant fibronectin domain 6 (UniProt P02751 1086-1172, limits assumed); test: specificity ELISA on immobilised recombinant fibronectin domain 6
T3 construct: domain: fibronectin domain 6; also called 6FN; 6-FN

[7] = target: T1, recombinant fibronectin domain ED-B …; test: SPR (BIAcore), ED-B immobilised on chip, Fab in flow
Method: as §1

[8] = target: T1, recombinant fibronectin domain ED-B …; test: SPR (BIAcore); ratio to parent clone MOR02715
Method: as §1

[9] = target: T2, recombinant fibronectin domain 7-8-9 …; test: specificity ELISA on immobilised recombinant domain 7-8-9; remark: listed apart in the source
[10] = target: T3, recombinant fibronectin domain 6; test: specificity ELISA on immobilised recombinant fibronectin domain 6; remark: listed apart in the source
[11] = target: T1, recombinant fibronectin domain ED-B …; test: SPR (BIAcore), ED-B immobilised on chip, Fab in flow; remark: listed apart in the source
Method: as §1
The properties of twelve selected binding molecules was determined by BIAcore analysis (see Table 1). […] At least two independent measurements with Fab molecules from different batches were performed for protein expression and protein purification. The binding rate (Kₒₙ) and the dissociating-off rate (Koff) of the Fab molecule are indicated in separate columns.

Molecule: AP39, covalent dimer of the anti-ED-B scFv antibody L19
kon [1]: 675000 M⁻¹ s⁻¹
Kd [2]: 2.4 nM
koff [2]: 0.00149 s⁻¹
kon [2]: 660000 M⁻¹ s⁻¹
koff [3]: 0.0015 s⁻¹

B1: MOR03245 (Fab, V domains shown)
VH: QVQLQESGPGLVKPGETLSLTCTVSGGSISSYYWSWIRQAPGKGLEWIGVIHKWGFTNYNPSLKSRVTISVDTSKNQFSLKLSSVTAADTAVYYCARFFDVWGQGTLVTVSS
VL: DIVLTQPPSVSGAPGQRVTISCSGSSSNIGSNTVRWYQQLPGTAPKLLIYSNNKRPSGVPDRFSGSKSGTSASLAITGLQSEDEADYYCWTGMSYHFVFGGGTKLTVLG
notes: Fab, H-CDR2 derivative of MOR03069
Kd [4]: 0.7 nM
koff [4]: 0.0016 s⁻¹
kon [4]: 3.5e+06 M⁻¹ s⁻¹
binding result [5]: no binding
binding result [6]: no binding

B2: MOR03062 (Fab, V domains shown)
VH: QVQLVESGGGLVQPGGSLRLSCAASGFTFSSYGMHWVRQAPGKGLEWVSVISSSGSYIYYADSVKGRFTISRDNSKNTLYLQMNSLRAEDTAVYYCARNKVGFDVWGQGTLVTVSS
VL: DIALTQPASVSGSPGQSITISCTGTSSDGGGYNTVSWYQQHPGKAPKLMIYYVHKRPSGVSNRFSGSKSGNTASLTISGLQAEDEADYYCQSWDLSVHQVVFGGGTKLTVLG
notes: Fab, L-CDR3 derivative of MOR02715
Kd [7]: 3.4 nM
koff [7]: 0.011 s⁻¹
kon [7]: 3.5e+06 M⁻¹ s⁻¹
x-Fold Improvement Relative to the Parent Clone, KD [8]: 15.8 fold
x-Fold Improvement Relative to the Parent Clone, Koff [8]: 4.2 fold
x-Fold Improvement Relative to the Parent Clone, Kon [8]: 4 fold

B3: MOR03255 (Fab, V domains shown)
VH: B2 VH with S53N, S54R, G55S
VL: B2 VL
notes: Fab, H-CDR2 derivative of MOR03062
Kd [4]: 0.03 nM
koff [4]: 8.6e-05 s⁻¹
kon [4]: 4.9e+06 M⁻¹ s⁻¹
binding result [5]: no binding
binding result [6]: no binding

B7: MOR03064 (Fab, V domains shown)
VH: B2 VH
VL: B2 VL with S96L, V97A, H98P, Q99S
notes: as for B2
Kd [7]: 10 nM
koff [7]: 0.014 s⁻¹
kon [7]: 1.5e+06 M⁻¹ s⁻¹
x-Fold Improvement Relative to the Parent Clone, KD [8]: 5.3 fold
x-Fold Improvement Relative to the Parent Clone, Koff [8]: 3.5 fold
x-Fold Improvement Relative to the Parent Clone, Kon [8]: 1.7 fold

B9: MOR02715 (Fab, V domains shown)
VH: B2 VH
VL: B2 VL with S92A, L95N, S96Q, V97G, H98M, Q99K, V100Y
notes: HuCAL GOLD Fab, VH3/L2
Kd [7]: 53.7 nM
koff [7]: 0.047 s⁻¹
kon [7]: 990000 M⁻¹ s⁻¹
binding result [9]: no binding
binding result [10]: no binding
Kd [11]: 53.7 nM
koff [11]: 0.047 s⁻¹
kon [11]: 890000 M⁻¹ s⁻¹

The next lines start with the values.

Kd [4]: 0.08 nM
koff [4]: 0.0003 s⁻¹
kon [4]: 5.3e+06 M⁻¹ s⁻¹
binding result [5]: no binding
binding result [6]: no binding
B4: MOR03257 (Fab, V domains shown)
VH: B2 VH with S53N, S54R, S56N
VL: B2 VL
notes: as for B3

Kd [4]: 0.13 nM
koff [4]: 0.0002 s⁻¹
kon [4]: 1.6e+06 M⁻¹ s⁻¹
binding result [5]: no binding
binding result [6]: no binding
B5: MOR03253 (Fab, V domains shown)
VH: B2 VH with S53N, S54M, S56F, Y57E
VL: B2 VL
notes: Fab, H-CDR2 derivative

Kd [4]: 0.07 nM
koff [4]: 0.0002 s⁻¹
kon [4]: 3.3e+06 M⁻¹ s⁻¹
binding result [5]: no binding
binding result [6]: no binding
B6: MOR03251 (Fab, V domains shown)
VH: B2 VH with S53N, S54M, G55S, S56Y, Y57T
VL: B2 VL
notes: as for B3

Kd [4]: 0.03 nM
koff [4]: 6.1e-05 s⁻¹
kon [4]: 3.1e+06 M⁻¹ s⁻¹
binding result [5]: no binding
binding result [6]: no binding
B8: MOR03252 (Fab, V domains shown)
VH: B2 VH with S53N, S54Y, G55S, S56W, Y57H
VL: B2 VL
notes: as for B3
